This is an account of results in patent US7005505 (Genentech, dated 2006).

Substitutions are numbered along the chain they refer to. Names and notes keep the numbering of the source.

Assay [1] addresses T1, FLT-1 IgG (UniProt P17948 27-758).
T1 construct: Construct only cited from Park et al. 1994; also called FLT-IgG; FLT-1 receptor-IgG chimera; not shown: IgG part of the chimera (captured by anti-human IgG Fc)
Put plainly: competition with 125I-VEGF165 for FLT-1-IgG, with heparin. The protocol:
(§1) After the supernatant was discarded, the wells were washed three times in washing buffer (0.01% Tween 80 in PBS). The plate was blocked (300 µl/well) for one hr in assay buffer (0.5% BSA, 0.03% Tween 80, 0.01% Thimerosal in PBS). The supernatant was discarded and the wells were washed. […] Aliquots of this solution (100 µl) were added to pre-coated microtiter plates and incubated for 4 hr at ambient temperature with gentle agitation. The supernatant was discarded, the plate washed, and individual microtiter wells were counted by gamma scintigraphy (LKB model 1277).

For assay [2], the target named is T2, KDR-IgG (UniProt P35968 20-764).
T2 construct: Construct only cited from Park et al. 1994; also called KDR receptor-IgG chimera; soluble KDR; not shown: IgG part of the chimera (captured by anti-human IgG Fc)
T2 sequence (P35968 20-764): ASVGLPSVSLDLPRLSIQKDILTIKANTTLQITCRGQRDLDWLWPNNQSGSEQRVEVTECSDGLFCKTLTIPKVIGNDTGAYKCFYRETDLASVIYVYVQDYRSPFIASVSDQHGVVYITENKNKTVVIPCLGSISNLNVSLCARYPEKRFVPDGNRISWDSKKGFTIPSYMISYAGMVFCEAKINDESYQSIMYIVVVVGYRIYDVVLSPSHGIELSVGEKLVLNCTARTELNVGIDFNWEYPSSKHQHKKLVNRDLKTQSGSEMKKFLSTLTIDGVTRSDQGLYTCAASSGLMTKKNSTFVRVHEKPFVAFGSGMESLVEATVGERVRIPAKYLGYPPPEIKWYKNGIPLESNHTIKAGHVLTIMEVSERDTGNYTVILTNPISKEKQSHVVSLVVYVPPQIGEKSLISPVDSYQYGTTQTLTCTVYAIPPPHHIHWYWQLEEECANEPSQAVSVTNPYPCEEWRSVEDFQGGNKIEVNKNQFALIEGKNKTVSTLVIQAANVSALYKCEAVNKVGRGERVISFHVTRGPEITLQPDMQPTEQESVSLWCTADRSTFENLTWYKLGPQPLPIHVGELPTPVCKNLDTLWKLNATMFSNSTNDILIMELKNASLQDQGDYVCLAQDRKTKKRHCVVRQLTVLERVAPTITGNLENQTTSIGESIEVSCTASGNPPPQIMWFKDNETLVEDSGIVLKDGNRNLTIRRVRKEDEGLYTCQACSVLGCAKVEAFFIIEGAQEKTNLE
Description: competition with 125I-VEGF165 for KDR-IgG, radioligand plate assay, no heparin. The protocol:
as §1
(§2) In addition to the specific amino acid substitutions, the table indicates the mean residue number for the position of the mutation(s). For a given mutant, this number is the average of the altered positions.

For assay [3], the target named is T1, FLT-1 IgG. Description: competition with 125I-VEGF165 for FLT-1-IgG, radioligand plate assay, no heparin. The protocol:
as §1

Assay [4] addresses T2, KDR-IgG. Description: competition with 125I-VEGF165 for KDR-IgG, n=8. The protocol: as §1, §2
Assay [5] concerns the target T1, FLT-1 IgG. Put plainly: competition with 125I-VEGF165 for FLT-1-IgG, radioligand plate assay. Here is the method:
as §1

Assay [6] has as its target T1, FLT-1 IgG. The description is as above. Here is the method:
as §1
This is another data set of the same source.

Assay [7] deals with T2, KDR-IgG. Put plainly: competition with 125I-VEGF165 for KDR-IgG, radioligand plate assay. Here is the method:
as §1

T1 sequence (P17948 27-758): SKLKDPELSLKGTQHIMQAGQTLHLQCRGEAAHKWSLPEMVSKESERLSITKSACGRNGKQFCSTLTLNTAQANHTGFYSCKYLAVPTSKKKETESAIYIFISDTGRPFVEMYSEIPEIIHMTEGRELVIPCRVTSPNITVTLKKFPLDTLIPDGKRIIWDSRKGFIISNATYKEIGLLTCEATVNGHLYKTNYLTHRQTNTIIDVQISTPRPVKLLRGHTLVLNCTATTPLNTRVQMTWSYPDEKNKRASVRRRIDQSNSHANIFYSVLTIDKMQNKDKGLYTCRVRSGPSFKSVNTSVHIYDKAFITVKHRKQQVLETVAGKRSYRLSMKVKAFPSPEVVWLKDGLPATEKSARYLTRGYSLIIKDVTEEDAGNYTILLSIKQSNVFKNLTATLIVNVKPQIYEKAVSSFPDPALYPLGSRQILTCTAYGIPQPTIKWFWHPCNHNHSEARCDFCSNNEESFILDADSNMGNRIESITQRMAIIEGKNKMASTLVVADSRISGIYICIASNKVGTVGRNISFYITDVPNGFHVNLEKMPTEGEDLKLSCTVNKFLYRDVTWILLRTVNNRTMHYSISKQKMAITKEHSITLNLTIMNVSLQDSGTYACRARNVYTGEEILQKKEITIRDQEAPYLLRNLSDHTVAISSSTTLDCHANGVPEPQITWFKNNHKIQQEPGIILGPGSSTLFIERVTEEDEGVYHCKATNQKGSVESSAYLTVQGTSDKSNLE

B1: wildtype VEGF165 expressed in 293 cells (ligand)
chain: APMAEGGGQNHHEVVKFMDVYQRSYCHPIETLVDIFQEYPDEIEYIFKPSCVPLMRCGGCCNDEGLECVPTEESNITMQIMRIKPHQGQHIGEMSFLQHNKCECRPKKDRARQENPCGPCSERRKHLFVQDPQTCKCSCKNTDSRCKARQLELNERTCRCDKPRR
modifications: N-linked carbohydrate at Asn75
notes: Transiently expressed in 293 cells; tested as conditioned medium
One may read the IC50 as the concentration at which inhibition is half-maximal. Lower therefore signals higher potency. As for B1, the IC50 in assay [1] was determined as 0.015 nM; in assay [2], 0.03 nM; in assay [3], 0.022 nM; in assay [4], 0.031 nM.

B2: purified CHO-derived VEGF165 (ligand)
chain: B1 chain
notes: Homodimer; also called VEGF (CHO cell); wildtype VEGF165 derived from CHO cells
For the molecule B2, the half-inhibitory concentration (IC50) in assay [5] is 0.95 ng/mL; in assay [3], 0.019 nM; in assay [6] it was 0.95 ng/mL.

B3: E103A VEGF (ligand)
chain: B1 chain with E103A
notes: VEGF165 mutant from 293 cells, conditioned medium
Regarding B3, the IC50 in assay [5] is 0.74 ng/mL; in assay [3] it was 0.017 nM.

B4: H90A, E93A VEGF (ligand)
chain: B1 chain with H90A, E93A
notes: VEGF165 mutant from 293 cells, conditioned medium; also called H9OA, E93A
Consider B4, for which the 50% inhibitory concentration (IC50) in assay [5] was 0.077 ng/mL; in assay [3] it was 0.026 nM.

B5: RIK(82-84)NLS VEGF (ligand)
chain: B1 chain with R82N, I83L, K84S
modifications: potential N-linked glycosylation site at position 82 (extent of glycosylation not apparent)
notes: Neo-glycosylation mutant from 293 cells, conditioned medium; also called R82N, I83L, K84S
Regarding B5, the IC50 in assay [2] is greater than 100 nM; in assay [3] it was 0.029 nM; in assay [7], greater than 10000 ng/mL; in assay [6] it was 1.63 ng/mL.

B6: R82A VEGF (ligand)
chain: B1 chain with R82A
notes: as for B3
As for B6, the IC50 in assay [3] stood at 0.02 nM; in assay [6], 1.23 ng/mL.

B7: E64N, L66S VEGF (ligand)
chain: B1 chain with E64N, L66S
modifications: putative extra N-linked glycosylation at position 64
notes: Neo-glycosylation mutant from 293 cells, conditioned medium
With B7, the values for the IC50 in assay [1], in assay [3] and in assay [6] were 0.65 nM, 0.98 nM and 35.6 ng/mL, respectively.

B8: H99A, K101A VEGF (ligand)
chain: B1 chain with H99A, K101A
notes: as for B3
In the case of B8, the IC50 in assay [5] amounted to 1.33 ng/mL; in assay [3], 0.03 nM.

B9: E64S VEGF (ligand)
chain: B1 chain with E64S
notes: preparation not described further
B9 showed a half-inhibitory concentration (IC50) in assay [6] of 1.9 ng/mL.

B10: K84A VEGF (ligand)
chain: B1 chain with K84A
notes: as for B3
For the molecule B10, the results for the IC50 in assay [3] and in assay [6] were 0.024 nM and 1.91 ng/mL, respectively.

B11: K107A, K108A VEGF (ligand)
chain: B1 chain with K107A, K108A
notes: as for B3
For B11, the IC50 in assay [5] came to 2.94 ng/mL; in assay [3], 0.066 nM.

B12: H11A, H12A, E13A VEGF (ligand)
chain: B1 chain with H11A, H12A, E13A
notes: as for B3
Consider B12, for which the IC50 in assay [5] was found to be 0.62 ng/mL; in assay [3], 0.02 nM.

B13: E72A, E73A VEGF (ligand)
chain: B1 chain with E72A, E73A
notes: as for B3
Consider B13, for which the IC50 in assay [5] stood at 0.91 ng/mL; in assay [3], 0.03 nM.

B14: E67A VEGF (ligand)
chain: B1 chain with E67A
notes: as for B3
B14: the results for the 50% inhibitory concentration (IC50) in assay [3] and in assay [6] were 0.008 nM and 0.47 ng/mL, respectively.

B15: E64A VEGF (ligand)
chain: B1 chain with E64A
notes: as for B3
For the molecule B15, the half-inhibitory concentration (IC50) in assay [3] was determined as 0.016 nM; in assay [7], 8 ng/mL; in assay [6], 0.94 ng/mL.

B16: E42N, E44S VEGF (ligand)
chain: B1 chain with E42N, E44S
modifications: N-linked carbohydrate at position 42 (apparently glycosylated)
notes: Neo-glycosylation control mutant from 293 cells, conditioned medium
Consider B16, for which the IC50 in assay [5] was determined as 0.77 ng/mL; in assay [3], 0.013 nM.

B17: E44A VEGF (ligand)
chain: B1 chain with E44A
notes: as for B3
B17: the concentration for half-maximal inhibition (IC50) came to 0.004 nM in assay [2], 0.54 ng/mL in assay [5] and 0.009 nM in assay [3].

B18: E30A VEGF (ligand)
chain: B1 chain with E30A
notes: as for B3
As to B18, the IC50 in assay [3] was 0.028 nM.

B19: D41A VEGF (ligand)
chain: B1 chain with D41A
notes: as for B3
The molecule B19 came in with a half-maximal inhibitory concentration (IC50) in assay [3] of 0.022 nM.

B20: K48A VEGF (ligand)
chain: B1 chain with K48A
notes: as for B3
In the case of B20, the IC50 in assay [2] turned out to be 0.02 nM; in assay [5] it was 1.08 ng/mL; in assay [3], 0.026 nM.

B21: N75A VEGF (ligand)
chain: B1 chain with N75A
notes: Unglycosylated form of VEGF from 293 cells, conditioned medium
Regarding B21, the half-maximal inhibitory concentration (IC50) in assay [5] was found to be 1.26 ng/mL; in assay [3], 0.022 nM.

B22: D34A VEGF (ligand)
chain: B1 chain with D34A
notes: as for B3
As for B22, the IC50 in assay [5] was 0.59 ng/mL; in assay [3], 0.011 nM.

B23: R82A, K84A, H86A VEGF (ligand)
chain: B1 chain with R82A, K84A, H86A
notes: VEGF165 mutant from 293 cells, conditioned medium; also called R82A, K84A, H86 VEGF
Regarding B23, the half-maximal inhibitory concentration (IC50) in assay [3] was 0.048 nM; in assay [6], 1.7 ng/mL.

B24: D63A VEGF (ligand)
chain: B1 chain with D63A
notes: as for B3
In the case of B24, the IC50 stood at 0.005 nM in assay [2], 0.026 nM in assay [3] and 1.54 ng/mL in assay [6].

B25: R23A VEGF (ligand)
chain: B1 chain with R23A
notes: as for B3
For the molecule B25, the IC50 in assay [5] was 1 ng/mL; in assay [3] it was 0.03 nM; in assay [7], 2 ng/mL.

B26: D109A, R110A VEGF (ligand)
chain: B1 chain with D109A, R110A
notes: as for B3
Turning to B26, the half-maximal inhibitory concentration (IC50) in assay [2] was 0.03 nM; in assay [5], 1.42 ng/mL; in assay [3] it was 0.035 nM.

B27: H86A VEGF (ligand)
chain: B1 chain with H86A
notes: as for B3
Take B27: the half-inhibitory concentration (IC50) in assay [3] was 0.015 nM; in assay [7] it was 2 ng/mL; in assay [6], 1.19 ng/mL.

B28: KKDR(107-110)AAAA VEGF (ligand)
chain: B1 chain with K107A, K108A, D109A, R110A
notes: VEGF165 mutant from 293 cells, conditioned medium; also called K107A, K108A, D109A, R110A
Consider B28, for which the half-inhibitory concentration (IC50) was found to be 2.42 ng/mL in assay [5] and 0.054 nM in assay [3].

B29: R105A VEGF (ligand)
chain: B1 chain with R105A
notes: as for B3
With B29, the half-maximal inhibitory concentration (IC50) came out at 1.57 ng/mL in assay [5] and 0.038 nM in assay [3].

B30: R112A, E114A VEGF (ligand)
chain: B1 chain with R112A, E114A
notes: as for B3
For the molecule B30, the IC50 in assay [2] was 0.04 nM; in assay [5], 0.56 ng/mL; in assay [3], 0.013 nM.

B31: E42A VEGF (ligand)
chain: B1 chain with E42A
notes: as for B3
In the case of B31, the 50% inhibitory concentration (IC50) in assay [2] came to 0.007 nM; in assay [5], 0.51 ng/mL; in assay [3] it was 0.008 nM.

B32: D63A, E64A, E67A VEGF (ligand)
chain: B1 chain with D63A, E64A, E67A
notes: as for B3
As to B32, the IC50 was 0.78 nM in assay [3] and 44.6 ng/mL in assay [6].

B33: E5A VEGF (ligand)
chain: B1 chain with E5A
notes: as for B3
On to B33, for which the IC50 in assay [3] was 0.022 nM.

B34: E38A VEGF (ligand)
chain: B1 chain with E38A
notes: as for B3
Turning to B34, the IC50 is 0.87 ng/mL in assay [5] and 0.015 nM in assay [3].
